Experimental data published in the DeepSol protein solubility set.

assay: soluble on expression in E. coli; label from the status in PepcDB or PDB records

Question: For “MKYIINHSNDTAFNIALEEYAFKHLLDEDQIFLLWINKPSIIVGRHQNTIEEINRDYVRENGIEVVRRISGGGAVYHDLNNLNYTIISKEDENKAFDFKSFSTPVINTLAQLGVKAEFTGRNDLEIDGKKFCGNAQAYINGRIMHHGCLLFDVDLSVLANALKVSKDKFESKGVKSVRARVTNIINELPKKITVEKFRDLLLEYMKKEYPEMTEYVFSEEELAEINRIKDTKFGTWDWNYGKSPEFNVRRGIKFTSGKVEVFANVTESKIQDIKIYGDFFGIEDVAAVEDVLRGVKYEREDVLKALKTIDITRYFAGISREEIAEAVVG”, which “soluble on expression in E. coli” value is on record?
Answer: not soluble

Question: Which “soluble on expression in E. coli” value does the source give for “MKYKHLILSLSLIMLGPLAHAEEIGSVDTVFKMIGPDHKIVVEAFDDPDVKNVTCYVSRAKTGGIKGGLGLAEDTSDAAISCQQVGPIELSDRIKNGKAQGEVVFKKRTSLVFKSLQVVRFYDAKRNALAYLAYSDKVVEGSPKNAISAVPVMPWRQ” here?
Answer: soluble

Question: Which “soluble on expression in E. coli” value does the source give for “MKYKIFASTTPQTEPVLQKLKQVLKGCEAVEKGFDYLFVLGGDGFFVSTVANYNCHNCRVVGINTGHLGFYTSFNEKDLDDNFLQKLQQCHFQRISLLEVSVNGQQHLVLNELAVYTNTAYPINIFIDGEAWEFYRGSGLLIGPRTGSTALAKSAKGAVIFPGIDVLQIIEMNPLLHPNQVTIQSPIILPKETQVEFVVKKAFNPQQFPTFYCDGRKLELPNADTTLALKLVQSTPMFNISLKTQDFINKLKSTFIKQSLEHHHHHH” here?
Answer: not soluble

Question: Which “soluble on expression in E. coli” value does the source give for “MKYKRVLLKLSGEFLTRNGFGIEPEATQALAREIKAAYDTGVQLAIVIGAGNLWRGARQGVGMDRATADYIGMLATIMNALALQDALESLGVPTRVQTALTITQVAEPYIRRRALRHLEKERIVIFGGGTGNPFFSTDTAAALRALEVGAEVVLMAKNKVDGVYSDDPRKNPEAVRFDELTYLEVLNRGLQVMDTTAITLCMEAGLPIVVFDIFKPGALVGIIQGEKVGTLIH” here?
Answer: soluble

Question: With “MKYQVKQVAEISGVSIRTLHHYDNIELLNPSALTDAGYRLYSDADLERLQQILFFKEIGFRLDEIKEMLDHPNFDRKAALQSQKEILMKKKQRMDEMIQTIDRTLLSVD” as the sequence, how does the “soluble on expression in E. coli” value read?
Answer: soluble

Question: Which “soluble on expression in E. coli” value does the source give for “MKYVLIQATDNGILRRAECGGAVTALFKYLLDKKLVDGVLALKRGEDVYDGIPTFITNSNELVETAGSLHCAPTNFGKLIAKYLADKKIAVPAKPCDAMAIRELAKLNQINLDNVYMIGLNCGGTISPITAMKMIELFYEVNPLDVVKEEIDKGKFIIELKNGEHKAVKIEELEEKGFGRRKNCQRCEIMIPRMADLACGNWGAEKGWTFVEICSERGRKLVEDAEKDGYIKIKQPSEKAIQVREKIESIMIKLAKKFQKKHLEEEYPSLEKWKKYWNRCIKCYGCRDNCPLCFCVECSLEKDYIEEKGKIPPNPLIFQGIRLSHISQSCINCGQCEDACPMDIPLAYIFHRMQLKIRDTLGYIPGVDNSLPPLFNIERLEHHHHHH” here?
Answer: soluble

Question: With “MLAFKVVISDKEKSVQMEVDPSESRGLIGLTIGDEFDGSIIGLSGYKLKITGGSDKNGFPMKKTVPGARRIRSLVSGGVGYKPRRDGERRRKTFRGNTISDDIVQINTVVIEKLEHHHHHH” as the sequence, how does the “soluble on expression in E. coli” value read?
Answer: not soluble

Question: Which “soluble on expression in E. coli” value does the source give for “MLARLLLSFSVVLTAFGVGAAEVDKTQPYQMMKQVAEVTFARLKAEQPKIKQDPNLLKVIVEQELMPYVNDRYAALKLLGPNLKGAKREDVLEFVDAFRAYLIASYAQVLTQYSDQQIEFGPEPKLDDSKRITSIKVEIIDAPRPNIKLEFKLRKDNKTDEWEAFDMVAEGISLLSSKQSEWNTKIRQDGILAVAQDLEKLAAEPIRFEAKK” here?
Answer: soluble

Question: Which “soluble on expression in E. coli” value does the source give for “MLARYLNLIGRRSASPYRPQRLPAKFDNVIVAMSSGVDSSVAAALFAGEFPNTRGVYMQNWSESQSLDDPGKEPCYERDWRDVNRVAKHLNIRVDKVNFEQDYWIDVFEPMLRGYSEGSTPNPDIGCNKFVKFGKLREWLDEKYGTGNYWLVTGHYARVMQEMNGKGLFHLLRSIYRPKDQSYYLSQINSTVLSSLLLPIGHLTKPEVRDLAKYAGLPTAEKPDSQGICFVNNSQHGKFKNFLKHYLPSSPGDIITVDPQSGAKTTWGRHDGLWSYTIGQKVGISMPQADPNYQGTWFVSEKLRDTNEILIVRGRDNPALYSDTMRIENFSSLGPREDTINAFQNTGALTLQFRSLQVPVQIKSCKLNRSADNLDITIHLASKQRAITPGQSCCLYIDDRVLGSGPISHVNNNDTHA” here?
Answer: soluble

Question: Which “soluble on expression in E. coli” value does the source give for “MLAYPHLFTPLDLGFTTLKNRILMGSMHTGLEELPDGPQRLAAFYAERAAGGVGLIVTGGIAPNMKGGVYQGASVLNDAAQIPHHQVVTEAVHQAGGKIALQILHAGRYSYQKHPVAPSALQAPINPFVPQALSHEEILQTIADFAHCAQLAKQAGYDGVEIMGSEGYLINQFLTARTNQRDDEWGGDFTHRMRFAVEIVRAVRQATGHDFILIYRLSMLDLVEEGSNWVEIEQLAQAVEQAGATVINTGIGWHEARIPTIATMVPRAGFSWVTRKLMGKVNIPLITTNRINDPAVAEQVLADGCADMVSMARPFLADAAFVQKAAQGRADEINTCIGCNQACLDQIFDGKLTSCLVNPRACRETEMPELPTDAPKRLAVVGAGPAGLAFAVTAARRGHQVTLFDAAAEIGGQFNIAKQIPGKEEFYETLRYFRRQLVLNGVTLQLNTLVQVKQLAEFDEVILACGIQPRLPCINGIDHPKVLTYLDVLRDKKPVGQRVAIIGAGGIGFDTAEYLSQSGDSPRFDSTAFSTEWGIDQDLAHRGGLSPAGAKVPPSPRQIFLLQRKASKVGEGLGKTTGWIHRTSLAMRGVKMLNSVSYEAIDDKGLHIIRAEQACCLPVDTIIICAGQEPRRELHQPLLDMGKTVYLIGGADKAVELDARRAIDQGTRLALAI” here?
Answer: not soluble

Question: With “MLCTVTEKLYYDDMYMKEFQAEVVSVDSNGIVLDRTAFYPTGGGQPNDTGIIVNDDKTYRVVDVQKHGDDVVHILESVDGLKAGDRIYGKIDWERRYAHMRYHTAIHILDGIVSAKHNSEALLTGGQIYEDRSRIDMNIENFTKEFVDQIIQEANEFISEGHRVYAENISREEAMKRPNLARTEPGRKLIESLPVVRIIVIEGLDEQSDGGTHVANTREVGKIVLRKIENKGRKNKRIEFELSPA” as the sequence, how does the “soluble on expression in E. coli” value read?
Answer: not soluble

Question: For “MLDDIPITIQKSKKIKTLSLNITPSLEVILKMPNSCSQTRASAFLKEQEAWLKKTFLSMQEKHSLLRTNLEKYQNKILVFDEVKNANDYTLTELKKILKTYLEQKLPLIAQKMQTSYTHFSIRNNAKVLGSCSYHNRLSFALLLVCAQKEAIDYVIIHELAHTIHKNHSKNFWRCVQIFCPNYRALRERLKQNTIFYAQLLKTLQPLEHHHHHH”, which “soluble on expression in E. coli” value is on record?
Answer: soluble

Question: With “MLDDVRLLANGLLQLGQSLREFVHKTKSQTNDIFQKLNIFDRSFYQLSVVTSEIKEEEEKLKGLSQPITVSIHQPEQRAKHTKEA” as the sequence, how does the “soluble on expression in E. coli” value read?
Answer: not soluble

Question: For “MLDKIRFTVLLDRPFYQPGQTIQGHVVCEPHHPLEIDCVEGRLHGEIQYFQQLPPNHNRNGSPLPPSKTRVLIDEKAQLWKYQTVSEMLGLDVFYDENQNRHFSSESASASSSSLFTTAATFPIQIELPHFAPPSFYCPGSPVSIRFTLEIQLYNQGFKIASHEENLVVLNYESIKRQVTPKPVNFQKTFNFPKERSISLEMLLPTDVFTTTARLENCITICNRWKQSLKYVHLNIVRRISALNQNNEVIDTVKIDTTGVGLPSKTKIAVGETYSFRPTFNVPALPPNIHVNGLFKTEYSLKVTIGRAHNFVLASYEVPITIVTMDQSSRRSMQKEDILVDISASNNTLNNLPVDLLA”, which “soluble on expression in E. coli” value is on record?
Answer: not soluble

Question: With “MLDPARSYDLIGDVHGCALTLEHLLDRLGYHKQAGVWRHPSRMAVFLGDIIDRGPRIRESLHIVHDMVEAGQALCIMGNHEFNALGWSTPAAEGSGKQFVREHTPRHARLIHETLTQFEQHPGDWHDFLQWFYELPLFVDAGRFRVVHACWDAGLIAPLRQQYPNGCIDREFLQSAAVPDSFACTAFDRLLRGTDMRLPHGLTMTSGDGLTRAFFRTKFWEDDPQTYGDIVFQPDALPEPVARTPLSPAEKNSLLRYGAEEPMLFVGHYWRSGKPAPIRPNLACLDYSAVLYGKLAAYRLDQETRLDPNKFVWVDVERPEVVRLEHHHHHH” as the sequence, how does the “soluble on expression in E. coli” value read?
Answer: not soluble

Question: For “MLDPGPNPAPRPSRDRAPHAVVIGSGFGGLAAAVRLGAKGYRVTVLEKLDKAGGRAYVHKQDGFSFDAGPTIVTAPYLFEELWKLCGKRMSDDITLKPMSPFYRIRFDDGTHFDYSDDRDAVLDQIAKFCPDDVPAYDRFMAASHEIFKVGFEQLGDQPFSHFTDMLKIAPAMIKLESYRSVYGLVAKHFKDPKLRQVFSFHPLLIGGNPFMSSSVYCLITYLEKQWGVHSAMGGTGALVTGLVNLIEGQGNTIRYNQDVRQIVVENGTACGVKLADGEVIKADIVVSNADSASTYRYLLPPETRKRWTDAKIEKSRYSMSLFVWYFGTKRRYEDVKHHTILLGPRYKELISDIFSRKVVAEDFSLYLHRPTATDPSLAPQGCDTFYVLSPVPNLLGDTDWHTKAETYRASIAKMLGATVLPDLENQIATSKITTPIDFQDRLSSFRGAAFGLEPVLWQSAWFRPHNQSEDVKRLYLVGAGTHPGAGLPGVLSSARVLDALVPEADSLVTSLEHHHHHH”, which “soluble on expression in E. coli” value is on record?
Answer: not soluble

Question: Which “soluble on expression in E. coli” value does the source give for “MLDYVPWIGNGYRYGNNHRGSNSSTSGVTTQGQSQNASSNEPAPTFSNVGVGLKANVNGTLSGSRTTPNQQGTPWLTLDQANLQLWTGAGWRNDKNGQSDENYTNFASAKGSTNQQGSTTGGSAGNPDSLKQDKADKSGDSVTVAEATSGDNLTNYTNLPPTSPPHPTDRTRCHSPTRTTPSGCSCSCAACWAASRCWSIRVGKMITVSLIPPTKNGLTPNLEHHHHHH” here?
Answer: not soluble

Question: Which “soluble on expression in E. coli” value does the source give for “MLEAPLLSICIPAYNRPNWLQRGLESIAVGEGSDIEIVITDDSDTDQGQAIASEVLKNWSGSWCYEHHQQPLGMAQNWNRAIQWATGQYVMVLHDDDFFLPQGLGLLVNKLRQLGSSSPVLLFGVRVVDAQERVVKRQGFRQDKLLPPHDALIRLFSDSSFVRFPAMVIRRDLFTEVGYFNPDWREPCDLEMWMRLFARYGVYCCREATVAYRVHGQALTMGSFHGETVNILLRLFGELEKLNILTTRDIEFCKGLFFHQYILAGAWRQLRRRRWREFKQVMGLFDLPELKSLSCPVKWRFLRGLFSLTLEHHHHHH” here?
Answer: not soluble

Question: With “MLEDMSKDALFYNYYAQWIEVYKKDAIREATMAKYRMTQKWVEKLAPELKVCELTRTAYQKILNDYAKEHERQTTLDFHHQLKGAVMDAVDEGLIERDPTRKAIIKGKTPREKKIKYLNQFELHTLIADLDIKEEPNWDWFILLVAKTGMRFSEALAITPKDFDFGRQTLSISKTWDYKGKGGFLPTKNKSSVRKIQIDWQIVVKFSELIKGLPEDEPIFVGEEKIYNSTVNDALTRHCKACGISEISIHGLRHTHASLLLFAGVSIASVARRLGHASMTTTQKTYLHIIQELENKDVDLVMRTLSGL” as the sequence, how does the “soluble on expression in E. coli” value read?
Answer: soluble

Question: Which “soluble on expression in E. coli” value does the source give for “MLEVLVALAIFATAAISVIRSVSQHINTVSYLEEKMFAAMVVDNQMANVMLDTGALKAKNGTEELAGRTWYWKVTPVATTQPLLKAFDVSVATAKNASPVVTVRSYVAQ” here?
Answer: not soluble

Question: For “MLFDMDGVLFDSMPYHAEAWHKTMKAHGLNLSREEAYMHEGRTGAGTINIVCQRQLGRDATQEEIESIYLEKSIEFNKHPQAERMPGAWELLQKIKAEGIIPTVVTGSGQASLLDRLEHNFPGMFRQELMVTAFDVKYGKPNPEPYLMALEKGGLKPNEAIVIENAPLGVEAGHKAGIFTIAVNTGPLNGEILLNAGADLLFPSMQALCESWEKLVRLLH”, which “soluble on expression in E. coli” value is on record?
Answer: not soluble

Question: With “MLFHLPKLPAELRVSHLNARVNEQRKKIAQTTASKLEFLQLTQQLVKEAKIRKKNNQKIFVLDFKGDIQASAVDQLREEITLILATAKSGKDRVVLRLESPGGMVHGYGLAAAQLVRLRDAGFHLTIVVDKVAASGGYMMACIANEIVSAPFAILGSIGVVAQVPNFNRLLKEHNVDFELYTAGEYKRTVTMFGENTPEGKAKFEEELKQTHALFKHFVEKYRPQLNVEKVATGEHWYGQDALDLNLVDKLQTSDEYLLSLLPQHDVYVITTRKKPTLGERLGLQAAQLADSFIPAVMNKVVESLVNANSHLVQMRDPKILEHHHHHH” as the sequence, how does the “soluble on expression in E. coli” value read?
Answer: not soluble
